The target of experiment [1] is T1, recombinant human αvβ8 protein (PARS-17102) (human).
T1 construct: also called hu.aVb8.17102; not shown: C-terminal acid/basic coils and any purification tags
T1 alpha: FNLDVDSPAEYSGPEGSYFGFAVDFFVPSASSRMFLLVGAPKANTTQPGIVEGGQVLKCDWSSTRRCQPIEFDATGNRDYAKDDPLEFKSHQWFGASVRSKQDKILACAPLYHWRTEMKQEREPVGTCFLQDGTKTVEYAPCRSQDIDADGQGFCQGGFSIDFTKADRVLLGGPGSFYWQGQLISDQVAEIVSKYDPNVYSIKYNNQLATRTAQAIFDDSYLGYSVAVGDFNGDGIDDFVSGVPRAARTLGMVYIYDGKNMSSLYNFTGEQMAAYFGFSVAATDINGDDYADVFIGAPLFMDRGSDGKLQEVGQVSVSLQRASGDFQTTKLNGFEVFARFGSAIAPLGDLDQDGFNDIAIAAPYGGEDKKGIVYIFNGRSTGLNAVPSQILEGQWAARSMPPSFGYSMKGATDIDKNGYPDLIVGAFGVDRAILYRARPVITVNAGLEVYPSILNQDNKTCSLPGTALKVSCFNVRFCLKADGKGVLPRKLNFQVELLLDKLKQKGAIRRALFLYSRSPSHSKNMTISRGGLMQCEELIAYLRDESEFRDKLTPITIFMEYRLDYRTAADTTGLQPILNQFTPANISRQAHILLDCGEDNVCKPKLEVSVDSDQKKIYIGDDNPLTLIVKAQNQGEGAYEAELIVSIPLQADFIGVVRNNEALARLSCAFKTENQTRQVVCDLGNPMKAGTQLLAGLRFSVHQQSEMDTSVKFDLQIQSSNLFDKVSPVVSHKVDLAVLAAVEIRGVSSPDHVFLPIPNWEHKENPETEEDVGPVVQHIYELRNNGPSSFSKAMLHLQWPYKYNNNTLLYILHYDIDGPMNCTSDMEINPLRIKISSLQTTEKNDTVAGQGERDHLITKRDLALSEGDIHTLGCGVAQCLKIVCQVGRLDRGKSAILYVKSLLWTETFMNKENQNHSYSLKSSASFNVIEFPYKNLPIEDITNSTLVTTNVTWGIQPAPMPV
T1 beta: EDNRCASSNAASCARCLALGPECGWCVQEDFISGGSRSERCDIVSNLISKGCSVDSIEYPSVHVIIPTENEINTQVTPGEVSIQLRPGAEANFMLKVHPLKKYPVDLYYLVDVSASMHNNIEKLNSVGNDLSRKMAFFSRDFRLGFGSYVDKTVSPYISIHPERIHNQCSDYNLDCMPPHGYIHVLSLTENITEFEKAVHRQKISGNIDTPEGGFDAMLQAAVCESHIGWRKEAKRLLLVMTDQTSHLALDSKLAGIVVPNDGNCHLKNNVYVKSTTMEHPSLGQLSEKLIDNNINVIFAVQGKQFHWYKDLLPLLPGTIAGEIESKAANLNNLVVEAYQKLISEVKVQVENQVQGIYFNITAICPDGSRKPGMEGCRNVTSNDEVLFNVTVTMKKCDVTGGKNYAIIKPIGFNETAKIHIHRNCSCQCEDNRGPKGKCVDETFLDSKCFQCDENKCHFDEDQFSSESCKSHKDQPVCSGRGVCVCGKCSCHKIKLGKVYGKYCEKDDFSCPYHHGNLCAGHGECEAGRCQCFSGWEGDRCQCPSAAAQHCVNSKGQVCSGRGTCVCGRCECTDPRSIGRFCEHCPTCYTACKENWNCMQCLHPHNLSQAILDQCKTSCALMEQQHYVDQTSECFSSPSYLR
Nature of the experiment: SPR binding assay, experiment 2, antibody as ligand, aVb8 as sample. Background: Surface plasmon resonance follows binding to a sensor surface in real time, without labels.

Experiment [2] concerns the target T2, recombinant mouse αvβ8 protein (PARS-17103) (murine, UniProt P43406 31-988; Q0VBD0 43-681, limits assumed).
T2 construct: Made in house; also called mu.aVb8.17103
The description is as above.

A further experiment deals with T3, cyno.aVb8.13650 (cynomolgus, UniProt A0A2K5WCD3 31-992; G7P0S0 43-684).
T3 construct: Carries another lot/construct number than cyno.aVb8-19393; kept apart; also called cynomolgus αvβ8
The description is as above.

The target of the next experiment is T4, human αvβ3 (human, UniProt P06756 31-992; P05106 27-718).
T4 construct: Counter-screen integrin; construct not described; also called hu.aVb3; αV03
Nature of the experiment: SPR binding assay, sample hu.aVb1,3,5,6.

The next experiment has as its target T5, human αvβ5 (human, UniProt P06756 31-992; P18084 24-719).
T5 construct: Counter-screen integrin; construct not described; also called hu.aVb5; αV05
Nature of the experiment: SPR binding assay, sample hu.aVb1,3,5,6.

For the next experiment, the target named is T6, human αvβ6 (human, UniProt P06756 31-992; P18564 22-709).
T6 construct: Counter-screen integrin; construct not described; also called hu.aVb6; αV06
Nature of the experiment: SPR binding assay, sample hu.aVb1,3,5,6.

A further experiment concerns the target T7, human αvβ1 (human, UniProt P06756 31-992; P05556 21-728).
T7 construct: Counter-screen integrin; construct not described; also called hu.aVb1; αVP1
The experiment is described as follows: SPR binding assay, sample hu.aVb1,3,5,6.

Experiment [3] deals with T1, recombinant human αvβ8 protein …. Nature of the experiment: SPR binding assay, experiment 1, antibody as ligand, aVb8 as sample.
In experiment [4] the target is T2, recombinant mouse αvβ8 protein …. The experiment is described as above.
For experiment [5], the target named is T8, recombinant cynomolgus monkey αvβ8 protein (PARS-19393) (cynomolgus monkey, UniProt A0A2K5WCD3 31-992; G7P0S0 43-684).
T8 construct: also called cyno.aVb8-19393; cyno.aVb8
Described as above.

T2 sequence (P43406 31-988 limits assumed, chain 1 of 2): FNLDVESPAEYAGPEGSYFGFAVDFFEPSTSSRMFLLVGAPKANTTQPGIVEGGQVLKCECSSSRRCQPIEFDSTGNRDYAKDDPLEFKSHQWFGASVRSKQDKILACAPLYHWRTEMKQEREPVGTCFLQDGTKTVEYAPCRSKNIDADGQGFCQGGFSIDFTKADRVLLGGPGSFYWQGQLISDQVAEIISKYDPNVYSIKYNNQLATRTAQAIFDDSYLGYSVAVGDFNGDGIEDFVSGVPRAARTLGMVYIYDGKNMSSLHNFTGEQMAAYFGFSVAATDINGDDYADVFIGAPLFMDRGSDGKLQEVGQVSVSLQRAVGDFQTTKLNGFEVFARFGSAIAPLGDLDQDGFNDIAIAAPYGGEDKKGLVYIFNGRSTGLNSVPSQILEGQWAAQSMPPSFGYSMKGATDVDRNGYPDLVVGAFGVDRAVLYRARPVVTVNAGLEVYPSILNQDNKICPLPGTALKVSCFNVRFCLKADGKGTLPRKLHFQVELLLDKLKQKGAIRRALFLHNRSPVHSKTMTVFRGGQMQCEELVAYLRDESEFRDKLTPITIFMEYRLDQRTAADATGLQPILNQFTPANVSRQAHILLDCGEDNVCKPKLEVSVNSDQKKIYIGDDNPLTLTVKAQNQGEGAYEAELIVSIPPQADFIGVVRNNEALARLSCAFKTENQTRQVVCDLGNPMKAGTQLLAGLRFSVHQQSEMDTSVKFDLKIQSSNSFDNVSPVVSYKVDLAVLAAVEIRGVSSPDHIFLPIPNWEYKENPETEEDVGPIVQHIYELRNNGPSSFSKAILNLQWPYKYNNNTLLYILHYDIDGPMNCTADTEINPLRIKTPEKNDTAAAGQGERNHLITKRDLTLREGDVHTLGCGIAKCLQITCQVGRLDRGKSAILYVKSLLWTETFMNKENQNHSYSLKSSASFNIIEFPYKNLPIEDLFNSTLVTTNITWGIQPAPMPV
T2 sequence (Q0VBD0 43-681 limits assumed, chain 2 of 2): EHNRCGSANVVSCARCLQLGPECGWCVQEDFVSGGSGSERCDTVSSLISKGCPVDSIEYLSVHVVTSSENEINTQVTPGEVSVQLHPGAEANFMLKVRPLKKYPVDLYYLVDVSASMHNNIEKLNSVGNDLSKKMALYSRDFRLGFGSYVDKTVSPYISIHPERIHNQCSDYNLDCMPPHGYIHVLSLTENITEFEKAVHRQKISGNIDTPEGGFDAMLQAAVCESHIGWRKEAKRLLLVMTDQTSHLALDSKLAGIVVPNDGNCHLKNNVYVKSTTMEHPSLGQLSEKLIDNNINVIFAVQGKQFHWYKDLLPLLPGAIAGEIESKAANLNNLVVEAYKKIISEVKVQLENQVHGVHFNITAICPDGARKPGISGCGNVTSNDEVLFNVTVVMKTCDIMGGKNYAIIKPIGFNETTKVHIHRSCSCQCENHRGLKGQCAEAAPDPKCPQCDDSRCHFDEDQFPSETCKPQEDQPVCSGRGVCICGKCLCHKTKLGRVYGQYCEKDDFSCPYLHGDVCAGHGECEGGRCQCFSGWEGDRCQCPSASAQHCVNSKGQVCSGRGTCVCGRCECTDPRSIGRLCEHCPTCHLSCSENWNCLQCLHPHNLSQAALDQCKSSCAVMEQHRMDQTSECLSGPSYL
T5 sequence (P18084 24-719 limits assumed, one chain of several): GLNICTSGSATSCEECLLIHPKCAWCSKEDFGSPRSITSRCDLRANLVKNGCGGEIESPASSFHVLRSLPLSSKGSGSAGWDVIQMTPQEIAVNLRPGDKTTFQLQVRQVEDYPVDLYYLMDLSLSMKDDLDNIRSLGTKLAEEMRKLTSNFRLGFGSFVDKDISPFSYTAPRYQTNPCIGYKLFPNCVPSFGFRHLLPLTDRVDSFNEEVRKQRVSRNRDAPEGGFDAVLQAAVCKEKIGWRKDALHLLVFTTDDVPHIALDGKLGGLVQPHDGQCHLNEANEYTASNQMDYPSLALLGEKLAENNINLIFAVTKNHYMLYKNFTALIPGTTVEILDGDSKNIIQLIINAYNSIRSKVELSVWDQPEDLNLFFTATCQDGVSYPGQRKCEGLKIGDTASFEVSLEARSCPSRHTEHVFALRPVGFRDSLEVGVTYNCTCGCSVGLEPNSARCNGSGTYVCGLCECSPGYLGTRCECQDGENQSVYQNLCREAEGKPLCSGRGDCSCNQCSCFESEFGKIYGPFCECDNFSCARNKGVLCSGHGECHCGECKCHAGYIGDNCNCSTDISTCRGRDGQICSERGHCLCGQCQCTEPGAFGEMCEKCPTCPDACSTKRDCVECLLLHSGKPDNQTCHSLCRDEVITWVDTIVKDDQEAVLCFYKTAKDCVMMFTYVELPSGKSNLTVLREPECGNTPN
T7 sequence (P05556 21-728 limits assumed, one chain of several): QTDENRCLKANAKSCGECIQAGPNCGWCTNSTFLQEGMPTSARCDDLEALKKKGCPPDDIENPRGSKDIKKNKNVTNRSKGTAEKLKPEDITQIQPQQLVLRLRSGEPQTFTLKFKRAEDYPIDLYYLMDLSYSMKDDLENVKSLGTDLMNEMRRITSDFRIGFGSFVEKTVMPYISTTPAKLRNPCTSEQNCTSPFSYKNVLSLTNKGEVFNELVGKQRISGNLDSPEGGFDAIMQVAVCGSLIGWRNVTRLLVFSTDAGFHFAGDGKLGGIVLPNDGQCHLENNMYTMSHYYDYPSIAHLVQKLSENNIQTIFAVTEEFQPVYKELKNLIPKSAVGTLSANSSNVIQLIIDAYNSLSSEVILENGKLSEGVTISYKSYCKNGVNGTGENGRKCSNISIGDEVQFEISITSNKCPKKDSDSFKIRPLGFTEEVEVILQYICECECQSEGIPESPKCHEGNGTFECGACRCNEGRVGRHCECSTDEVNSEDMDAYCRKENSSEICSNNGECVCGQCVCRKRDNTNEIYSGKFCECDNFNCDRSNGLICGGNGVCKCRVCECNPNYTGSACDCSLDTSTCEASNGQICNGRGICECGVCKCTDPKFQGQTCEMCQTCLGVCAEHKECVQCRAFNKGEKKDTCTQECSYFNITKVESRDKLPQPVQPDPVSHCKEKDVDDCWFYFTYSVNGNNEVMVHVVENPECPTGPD
T4 sequence (P05106 27-718 limits assumed, one chain of several): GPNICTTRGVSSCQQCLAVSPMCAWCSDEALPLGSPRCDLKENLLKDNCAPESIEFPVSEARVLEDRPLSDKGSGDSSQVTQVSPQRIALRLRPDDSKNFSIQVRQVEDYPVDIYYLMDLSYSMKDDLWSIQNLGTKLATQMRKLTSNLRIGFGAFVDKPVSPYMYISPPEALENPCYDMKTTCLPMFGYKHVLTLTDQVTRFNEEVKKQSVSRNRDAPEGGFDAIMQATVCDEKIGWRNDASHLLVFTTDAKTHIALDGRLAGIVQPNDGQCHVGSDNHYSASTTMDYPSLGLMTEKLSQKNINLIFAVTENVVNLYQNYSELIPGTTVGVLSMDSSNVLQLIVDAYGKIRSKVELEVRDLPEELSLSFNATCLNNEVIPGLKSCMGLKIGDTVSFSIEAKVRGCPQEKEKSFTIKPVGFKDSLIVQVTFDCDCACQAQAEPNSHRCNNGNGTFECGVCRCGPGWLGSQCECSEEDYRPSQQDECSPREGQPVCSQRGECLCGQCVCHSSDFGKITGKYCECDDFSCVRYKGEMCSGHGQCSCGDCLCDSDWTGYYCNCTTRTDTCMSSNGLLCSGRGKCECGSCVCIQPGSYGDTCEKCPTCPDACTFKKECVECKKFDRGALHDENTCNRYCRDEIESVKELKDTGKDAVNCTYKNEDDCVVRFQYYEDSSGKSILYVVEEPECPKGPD
T6 sequence (P18564 22-709 limits assumed, one chain of several): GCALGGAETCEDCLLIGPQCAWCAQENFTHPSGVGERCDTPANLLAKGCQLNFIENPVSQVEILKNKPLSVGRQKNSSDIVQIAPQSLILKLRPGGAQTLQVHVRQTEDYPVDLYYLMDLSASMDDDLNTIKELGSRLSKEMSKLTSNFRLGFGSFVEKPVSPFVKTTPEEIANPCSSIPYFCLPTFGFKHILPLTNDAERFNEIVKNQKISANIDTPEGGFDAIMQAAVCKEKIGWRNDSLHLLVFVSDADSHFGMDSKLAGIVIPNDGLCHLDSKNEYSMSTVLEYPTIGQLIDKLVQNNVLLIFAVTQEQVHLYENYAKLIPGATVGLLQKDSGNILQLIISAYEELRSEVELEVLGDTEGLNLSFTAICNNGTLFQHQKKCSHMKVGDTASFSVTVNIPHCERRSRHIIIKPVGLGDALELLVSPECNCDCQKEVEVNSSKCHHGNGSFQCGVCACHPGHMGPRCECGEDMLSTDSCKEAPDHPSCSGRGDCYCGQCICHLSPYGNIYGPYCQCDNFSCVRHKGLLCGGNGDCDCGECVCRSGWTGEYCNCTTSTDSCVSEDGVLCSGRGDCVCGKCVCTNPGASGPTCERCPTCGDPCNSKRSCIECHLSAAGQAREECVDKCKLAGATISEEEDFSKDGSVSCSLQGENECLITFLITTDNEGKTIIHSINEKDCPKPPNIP

B1: Hu.aVb8-92.H13L1 (aVb8-92.H13L1.hIgG1.LALAPG) (antibody, V domains shown)
VH: EQQLLESGGGLVQPGGSLRLSCAASGFSLSSYAMGWVRQAPGKGLEWIGVIRKDDNTYYGNWAKGRFTISRDSSKNTLYLQMNSLRAEDTAVYFCARALNTYVGFPYFNIWGPGTLVTVSS
VL: DAVLTQSPDSLAVSLGERATINCQSIKSVGDNKWLAWYQQKPGQPPKLLIYDASDLASGVPDRFSGSGSRTDFTLTISSLQAEDVAVYYCAGSVSSGDSGFGGGTKVEIKR
notes: Human IgG1 LALAPG; also called PARS-20463-65 (IH) aVb8-92.H13L1.hIgG1.LALAPG; humanized αvβ8-92
Take B1: the Kd – broadly, the equilibrium constant for the complex coming apart – in [1] came to 2.95 nM; in experiment [2] it was 3.42 nM; with cyno.aVb8.13650 it was 12.9 nM; in experiment [3], 10.1 nM; in experiment [4] it was 9.91 nM; in experiment [5], 11.1 nM. Besides, the koff (as a rule, the rate constant with which the complex falls apart) in experiment [1] came out at 0.000195 s⁻¹; in [2], 0.000236 s⁻¹; with cyno.aVb8.13650 it was 0.000443 s⁻¹; in [3] it was 0.000283 s⁻¹; in experiment [4], 0.000311 s⁻¹; in experiment [5], 0.000284 s⁻¹. Further, the kon (as a rule, the rate constant with which the complex forms) in [1] is 66100 M⁻¹ s⁻¹; in experiment [2], 69100 M⁻¹ s⁻¹; with cyno.aVb8.13650, 34500 M⁻¹ s⁻¹; in [3], 28000 M⁻¹ s⁻¹; in experiment [4] it was 31400 M⁻¹ s⁻¹; in experiment [5] it was 25500 M⁻¹ s⁻¹. The binding result in the experiment with human αvβ3, with human αvβ5, with human αvβ6 and in the experiment with human αvβ1 was “no binding” each time.

The values are drawn from US20240327522A1 (Genentech, published 2024).
